# B1: Early protein (Human adenovirus C serotype 5 (HAdV-5)), P03255-2 (parent)
# chain: MRHIICHGGVITEEMAASLLDQLIEEVLADNLPPPSHFEPPTLHELYDLDVTAPEDPNEEAVSQIFPDSVMLAVQEGIDLLTFPPAPGSPEPPHLSRQPEQPEQRALGPVSMPNLVPEVIDLTCHEAGFPPSDDEDEEGPVSEPEPEPEPEPEPARPTRRPKMAPAILRRPTSPVSRECNSSTDSCDSGPSNTPPEIHPVVPLCPIKPVAVRVGGRRQAVECIEDLLNEPGQPLDLSCKRPRP
# partner: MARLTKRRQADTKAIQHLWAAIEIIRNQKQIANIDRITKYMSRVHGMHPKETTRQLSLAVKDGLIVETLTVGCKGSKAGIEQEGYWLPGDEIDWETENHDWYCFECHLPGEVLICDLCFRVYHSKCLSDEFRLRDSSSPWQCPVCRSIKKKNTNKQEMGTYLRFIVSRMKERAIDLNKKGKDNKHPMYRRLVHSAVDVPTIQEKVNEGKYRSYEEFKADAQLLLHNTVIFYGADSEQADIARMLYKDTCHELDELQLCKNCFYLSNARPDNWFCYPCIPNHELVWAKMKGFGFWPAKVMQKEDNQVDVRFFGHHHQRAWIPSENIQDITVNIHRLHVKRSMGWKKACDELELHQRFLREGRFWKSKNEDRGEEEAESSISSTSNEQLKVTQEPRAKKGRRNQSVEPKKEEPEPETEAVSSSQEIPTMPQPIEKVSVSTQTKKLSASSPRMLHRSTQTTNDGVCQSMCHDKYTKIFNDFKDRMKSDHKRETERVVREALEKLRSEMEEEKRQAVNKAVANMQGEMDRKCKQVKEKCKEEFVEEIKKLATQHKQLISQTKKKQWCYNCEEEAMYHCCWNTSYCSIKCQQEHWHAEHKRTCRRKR
# Variants of: B1
# Settings: with zmy11_human ZMYND11, Q15326
row,Variant,effect of a mutation on the interaction
1,L115A,disrupting interaction

# Source: IntAct's records for PubMed 11733528
